Values of other authors in PMC10215522.
pKd: −log10 of the molar value.

Target: TFPI2 (Homo sapiens) (UniProt P48307)
UniProt P48307, sequence (P48307 23-235): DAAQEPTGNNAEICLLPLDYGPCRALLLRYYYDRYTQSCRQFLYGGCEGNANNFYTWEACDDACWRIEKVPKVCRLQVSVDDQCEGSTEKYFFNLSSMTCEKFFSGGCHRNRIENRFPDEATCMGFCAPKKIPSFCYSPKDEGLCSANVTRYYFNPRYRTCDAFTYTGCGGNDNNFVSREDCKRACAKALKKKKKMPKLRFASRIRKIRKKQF

- pKd: 7.15
Substance: gC1qR (from UniProt Q07021)
